According to US20150353628A1 (published 2015):

Key:
[1] = target: T1, pertussis toxin protein (Bordetella pertussis, UniProt P04977 35-269; P04978 28-226; P04979 29-227; P0A3R5 43-152; P04981 35-133); experiment: competition ELISA
T1 construct: also called PTx; PT

[2] = target: T1, pertussis toxin protein; experiment: ELISA, PTx coated, anti-mouse-HRP secondary
Text: Specifically, the pertussis toxin protein was used for coating while anti-mouse-HRP or anti-human Fc-HRP were used as secondary antibodies. TMB(3,3′,5,5′-Tetramethylbenzidine) was used as substrate for the assay.

[3] = target: T1, pertussis toxin protein; experiment: pertussis toxin competition assay (ELISA read-out)

Binder	Kd [1] [nM]	EC50 [2] [nM]	Kd [3] [nM]
murine m11E6 antibody (antibody, V domains shown, also called parental murine 11E6 antibody; mouse 11E6) VH: EVKVVESGGGLVQPGGSLRLSCTTSGFTFTDYYVSWVRQPPGKALEWLGFIRNKVNGYTTEFSSSVKGRFTISRDNSQSILYLQMNTLRVEDSATYYCARVSYYGRGWYFDYWGQGTTLTVSS VL: DIVMTQSTSSLSASLGDRVTISCRASQDIDNYLSWFQQKPDGTVKLLIYYTSRLHSGVPSRFSGSGSGTDYSLTISSLDQEDIATYFCQQGNTFPWTFGGGTKLEIK	5	2.7	–
chimeric 11E6 antibody (antibody, V domains shown, also called ch11E6) VH: EVKVVESGGGLVQPGGSLRLSCTTSGFTFTDYYVSWVRQPPGKALEWLGFIRNKVNGYTTEFSSSVKGRFTISRDNSQSILYLQMNTLRVEDSATYYCARVSYYGRGWYFDYWGQGTTLTVSS VL: DIVMTQSTSSLSASLGDRVTISCRASQDIDNYLSWFQQKPDGTVKLLIYYTSRLHSGVPSRFSGSGSGTDYSLTISSLDQEDIATYFCQQGNTFPWTFGGGTKLEIK	5	–	–
murine m1B7 antibody (antibody, V domains shown, also called parental murine 1B7 antibody; mouse 1B7) VH: QVQLQQPGSELVRPGASVKLSCKASGYKFTSYWMHWVKQRPGQGLEWIGNIFPGSGSTNYDEKFNSKATLTVDTSSNTAYMQLSSLTSEDSAVYYCTRWLSGAYFDYWGQGTTLTVSS VL: QIVLTQSPALMSASPGEKVTMTCSASSSVSFMYWYQQKPRSSPKPWIYLTSNLPSGVPARFSGSGSGTSYSLTISSMEAEDAATYYCQQWSSHPPTFGSGTKLEIK	0.4	0.19	0.15
chimeric 1B7 antibody (antibody, V domains shown, also called ch1B7) VH: QVQLQQPGSELVRPGASVKLSCKASGYKFTSYWMHWVKQRPGQGLEWIGNIFPGSGSTNYDEKFNSKATLTVDTSSNTAYMQLSSLTSEDSAVYYCTRWLSGAYFDYWGQGTTLTVSS VL: QIVLTQSPALMSASPGEKVTMTCSASSSVSFMYWYQQKPRSSPKPWIYLTSNLPSGVPARFSGSGSGTSYSLTISSMEAEDAATYYCQQWSSHPPTFGSGTKLEIK	0.5	–	–
